Measured values published in patent publication EP4768503A1 (Keymed Biosciences (Chengdu) Co., Ltd., dated 2026).
Residue numbers refer to the chain shown, from its start. Each block holds one binder with its values, some of them ahead of it. Where no end group is shown, it is not given here. [ ]: non-standard residue; d: D form. pGlu = O=C1CC[C@@H](C(=O)O)N1

Columns and labels:
[1] = molecular target: T1, pyroE Aβ3-16-biotin polypeptide (human, also: biotin, position not given here); assay: SPR (Biacore T200), biotinylated peptide on SA chip, antibody as analyte; antigen channel not given
T1 peptide: [pGlu]FRHDSGYEVHHQK

pyroE Aβ3-42 peptide = molecular target: T2, pyroE Aβ3-42 peptide (human, pyroglutamate derived from glutamic acid at the third amino acid position of Aβ (N-terminus of the peptide)); assay: graded binding, chimeric antibody (assay not named; ELISA in Example 1)
T2 construct: Synthetic peptide; It lacks the first two N-terminal residues of Aβ; also called pyroglutamate-modified β-amyloid

Aβ1-42 monomer = molecular target: T3, Aβ1-42 monomer (human); assay: as above
T3 construct: Preparation of the monomer is not described

Aβ1-42 protofibril [2] = molecular target: T4, Aβ1-42 protofibril (human); assay: SPR (Biacore T200), protofibril on CM5 chip, antibody as analyte
T4 construct: also called amyloid protofibril

Aβ1-42 protofibril [3] = molecular target: T4, Aβ1-42 protofibril; assay: graded binding, chimeric antibody (assay not named; ELISA in Example 1)

T3 sequence (peptide, as listed by the source): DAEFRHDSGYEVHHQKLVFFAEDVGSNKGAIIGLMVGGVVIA
T2 sequence (peptide, as listed by the source): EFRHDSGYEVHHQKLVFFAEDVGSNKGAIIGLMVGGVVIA

B1: 151N5 (antibody, V domains shown)
VH: EVQLVESGGGLVKPGGSLKLSCAASGFTFSDFYMYWVRQTPEKRLEWVATISDGGRYTYYPDRLKGRFTISRNIAKNNLYLQMSSLKSEDTAMYYCARGRSTMITTTRNYFALDYWGQGTSVTVSS
VL: DIQMTQSSSSFSVSLGDRVTITCKASEDIYNRLAWYQQKPGDAPRLLISGAIRLETGVPSRFSGSGSGKDYTLSITSLQTEDGATYYCQQYWRTPLTFGAGIKLELK
notes: Chimeric (parent) antibody; the constant region of the chimeric form is not specified
Kd [1]: 291 pM
koff [1]: 0.000319 s⁻¹
kon [1]: 1.1e+06 M⁻¹ s⁻¹
binding result (pyroE Aβ3-42 peptide): binds

B2: 6B5 (antibody, V domains shown)
VH: EVQLQQSGAELVKPGASVKLSCKASGYTFTTYWMHWVKQRPGQGLEWIGEIDPSDSYTNYNQKFKGKATLTVDKSSSTAYMQLSSLTSEDSAVYYCARSFHGNFFVYWGQGTLVTVSA
VL: QIVLTQSPAIMSASPGEKVTITCSASSSVSYMHWFQQKPGTSPKLWIYSTSNLASGVPARFSGSGSGTSYSLTISRMEAEDAATYYCQQRSSYPLTFGAGTKLELK
notes: as for B1
binding result (Aβ1-42 monomer): binds
binding result (pyroE Aβ3-42 peptide): binds
Kd (Aβ1-42 protofibril [2]): 1710 pM
koff (Aβ1-42 protofibril [2]): 0.00196 s⁻¹
kon (Aβ1-42 protofibril [2]): 1.15e+06 M⁻¹ s⁻¹

B5: 200O1 (antibody, V domains shown)
VH: QVQLKESGPGLVAPSQSLSITCTVSGFSLSRYIVHWYRQPPGKGLEWLGMIWGGGRIDYNSALKSRLSISKDNSKSQVFLKMNSLQTDDTAMYYCARNFGENAEAYWGQGTLVTVSA
VL: DIQMTQTTSSLSASLGDRVTITCRASQDINIYLNWYQQKPDGVVKLLIYYTSRLHSGVPSRFSGSGSGTDFSLTISNLEQEDIATYFCQQGHTLPYTFGGGTKLEIK
notes: Chimeric (parent) antibody; the constant region of the chimeric form is not specified; also called 20001
Kd [1]: 0.0716 pM
koff [1]: 5.44e-08 s⁻¹
kon [1]: 760000 M⁻¹ s⁻¹
binding result (pyroE Aβ3-42 peptide): binds

Now from value to binder:

binding result (Aβ1-42 monomer): binds
binding result (Aβ1-42 protofibril [3]): binds
binding result (pyroE Aβ3-42 peptide): binds
B3: 11G10 (antibody, V domains shown)
VH: B2 VH with L11I, T31S, S84R, F104L
VL: B2 VL with S55T, L105I
notes: Chimeric antibody; the constant region of the chimeric form is not specified

binding result (Aβ1-42 monomer): binds
binding result (Aβ1-42 protofibril [3]): binds
binding result (pyroE Aβ3-42 peptide): binds
B4: 6C9 (antibody, V domains shown)
VH: B2 VH with E1Q, T31N, W33Y, M34V, T58S
VL: B2 VL with P15L, K18E, V19I, I21L, L95P, A99G, L105I
notes: as for B3
